Paper PMC11074131, “ASS1 inhibits triple-negative breast cancer by regulating PHGDH stability and de novo serine synthesis” (Cell Death & Disease, 2024)

T1: His-PHGDH (UniProt O43175 1-533)
T1 construct: also called PHGDH-F; full-length PHGDH; source: E. coli BL21 DE3, purified
T1 sequence (looked up): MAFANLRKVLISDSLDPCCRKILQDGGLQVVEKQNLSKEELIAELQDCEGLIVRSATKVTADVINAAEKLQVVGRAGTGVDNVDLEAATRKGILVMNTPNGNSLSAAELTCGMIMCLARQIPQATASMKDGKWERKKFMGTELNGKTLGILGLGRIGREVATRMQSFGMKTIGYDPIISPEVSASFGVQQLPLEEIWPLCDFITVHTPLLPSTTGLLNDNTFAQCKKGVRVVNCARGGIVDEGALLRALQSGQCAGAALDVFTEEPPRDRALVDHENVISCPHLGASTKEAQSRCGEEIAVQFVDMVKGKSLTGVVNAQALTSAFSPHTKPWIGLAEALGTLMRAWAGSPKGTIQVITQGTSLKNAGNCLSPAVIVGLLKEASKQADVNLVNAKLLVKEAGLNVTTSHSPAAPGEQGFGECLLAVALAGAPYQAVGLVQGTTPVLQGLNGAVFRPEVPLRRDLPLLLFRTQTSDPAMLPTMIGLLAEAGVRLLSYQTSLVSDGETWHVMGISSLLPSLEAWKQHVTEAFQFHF

T2: GST-PHGDH (UniProt O43175 1-533)
T2 construct: also called recombinant GST-PHGDH; source: E. coli BL21 DE3, purified
T2 sequence (looked up): T1 sequence (looked up)

B1: GST-ASS1 (natural protein, human, UniProt P00966 1-412, looked up)
chain: MSSKGSVVLAYSGGLDTSCILVWLKEQGYDVIAYLANIGQKEDFEEARKKALKLGAKKVFIEDVSREFVEEFIWPAIQSSALYEDRYLLGTSLARPCIARKQVEIAQREGAKYVSHGATGKGNDQVRFELSCYSLAPQIKVIAPWRMPEFYNRFKGRNDLMEYAKQHGIPIPVTPKNPWSMDENLMHISYEAGILENPKNQAPPGLYTKTQDPAKAPNTPDILEIEFKKGVPVKVTNVKDGTTHQTSLELFMYLNEVAGKHGVGRIDIVENRFIGMKSRGIYETPAGTILYHAHLDIEAFTMDREVRKIKQGLGLKFAELVYTGFWHSPECEFVRHCIAKSQERVEGKVQVSVLKGQVYILGRESPLSLYNEELVSMNVQGDYEPTDATGFININSLRLKEYHRLQSKVTAK
notes: also called recombinant GST-ASS1; source: E. coli BL21 DE3, purified
B2: His-ASS1 (natural protein, human, UniProt P00966 1-412, looked up)
chain: B1 chain
notes: also called recombinant His-ASS1; source: E. coli BL21 DE3, purified
B3: PHGDH N-314 (catalytic domain) (domain or fragment, UniProt O43175 1-314, looked up)
chain: MAFANLRKVLISDSLDPCCRKILQDGGLQVVEKQNLSKEELIAELQDCEGLIVRSATKVTADVINAAEKLQVVGRAGTGVDNVDLEAATRKGILVMNTPNGNSLSAAELTCGMIMCLARQIPQATASMKDGKWERKKFMGTELNGKTLGILGLGRIGREVATRMQSFGMKTIGYDPIISPEVSASFGVQQLPLEEIWPLCDFITVHTPLLPSTTGLLNDNTFAQCKKGVRVVNCARGGIVDEGALLRALQSGQCAGAALDVFTEEPPRDRALVDHENVISCPHLGASTKEAQSRCGEEIAVQFVDMVKGKSLTG
notes: also called catalytic domain of PHGDH; source: E. coli BL21 DE3, purified

Columns and labels:
Conditions in all cases: both partners purified
His-PHGDH = molecular target: T1, His-PHGDH; test: pull-down; purified GST-ASS1 immobilised on MagneGST Glutathione Particles; purified His-PHGDH or its truncated forms added overnight at 4 °C; washed with PBST; western blot; GST as negative control
GST-PHGDH = molecular target: T2, GST-PHGDH; test: pull-down; purified GST-PHGDH immobilised on MagneGST Glutathione Particles; purified His-ASS1 added overnight at 4 °C; washed with PBST; western blot; GST as negative control
GST-ASS1 = molecular target: B1; test: pull-down; purified GST-ASS1 immobilised on MagneGST Glutathione Particles; purified His-PHGDH or its truncated forms added overnight at 4 °C; washed with PBST; western blot; GST as negative control

Binder: B1
binding result (His-PHGDH): binds

Binder: B2
binding result (GST-PHGDH): binds

Binder: B3
binding result (GST-ASS1): binds
